Results published in patent US20220119534A1 (DRAGONFLY THERAPEUTICS, published 2022).
“And” between values parts separate entries of the source, which are not always exact repeats. Identical values can stand only once. Each block holds one binder with its values, some of them ahead of it.

Columns and labels:
[1] = target: T1, mFc-hNKG2D (human, UniProt P26718 73-216); assay: SPR Biacore 8K 37 C; mFc-hNKG2D captured on anti-mFc chip, TriNKET as analyte; kinetics fit
T1 construct: extracellular domain; Made in house (Dragonfly Tx); the order of tag and ECD follows the name mFc-hNKG2D; also called mFc-tagged human NKG2D; not shown: mouse Fc tag
T1 sequence (looked up): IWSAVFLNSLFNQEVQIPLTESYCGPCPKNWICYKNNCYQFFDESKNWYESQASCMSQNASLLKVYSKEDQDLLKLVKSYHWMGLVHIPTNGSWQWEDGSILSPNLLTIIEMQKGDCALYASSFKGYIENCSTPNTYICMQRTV

[2] = target: T1, mFc-hNKG2D; assay: SPR Biacore 8K 37 C; mFc-hNKG2D captured on anti-mFc chip, TriNKET as analyte; steady state affinity fit
Description: Association was monitored for 60 seconds, and dissociation was monitored for 60 seconds. Surfaces were regenerated between cycles with three pulses of 10 mM glycine-HCl (pH 1.7) injected for 20 seconds at 100 μL/min.
Two different fits were utilized to obtain the equilibrium affinity data: steady state affinity fit and kinetic fit.

[3] = target: T2, mFc-cNKG2D (cynomolgus monkey, UniProt P61252 73-216); assay: SPR Biacore 37 C; mFc-tagged cyno NKG2D dimer, TriNKET as analyte; kinetics fit; average of 4
T2 construct: extracellular domain; Made in house (Dragonfly Tx); also called recombinant cyno NKG2D extracellular domain (ECD); mFc-tagged cyno NKG2D dimer; not shown: mouse Fc tag
T2 sequence (looked up): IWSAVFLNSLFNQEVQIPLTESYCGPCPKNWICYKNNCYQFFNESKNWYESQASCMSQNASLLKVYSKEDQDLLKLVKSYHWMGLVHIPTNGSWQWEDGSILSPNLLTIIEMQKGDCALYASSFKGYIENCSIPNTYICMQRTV

[4] = target: T1, mFc-hNKG2D; assay: SPR Biacore 8K 37 C; mFc-hNKG2D captured on anti-mFc chip, TriNKET as analyte; steady state fit; control sample
Description: (§1) Association was monitored for 60 seconds and dissociation was monitored for 60 seconds. Surfaces were regenerated between cycles with three pulses of 10 mM glycine-HCl, pH 1.7 injected for 20 seconds at 100 μL/min. HBS-EP+ (1×) buffer was used throughout the experiment. Data were analyzed using Biacore 8K Insight evaluation software (GE Healthcare).

[5] = target: T1, mFc-hNKG2D; assay: SPR Biacore 8K 37 C; mFc-hNKG2D captured on anti-mFc chip, TriNKET as analyte; steady state fit; control sample, n=2
Description: as §1

[6] = target: T3, Human CLEC12A-His (human, UniProt Q5QGZ9 65-265); assay: SPR Biacore 8K 37 C; TriNKET captured on anti-hFc chip, hCLEC12A-His as analyte; 1:1 fit; after 2 wks 40 C at pH 8.0, n=2
T3 construct: Recombinant soluble protein made in house (Dragonfly Tx); The hCLEC12A spot of the HuProt array is written under this molecule as well; also called hCLEC12A-His; hCLEC12A; not shown: His tag
T3 sequence: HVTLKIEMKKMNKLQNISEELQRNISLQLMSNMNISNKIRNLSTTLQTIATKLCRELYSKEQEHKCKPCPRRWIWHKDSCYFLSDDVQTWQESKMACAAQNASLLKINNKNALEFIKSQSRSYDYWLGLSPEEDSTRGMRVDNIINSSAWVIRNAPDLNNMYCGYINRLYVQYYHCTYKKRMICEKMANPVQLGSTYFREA

[7] = target: T4, Human CD32b (human, UniProt P31994 46-217, limits assumed, biotinylated); assay: SPR, steady state fit; average for AB0192
T4 construct: Bought recombinant receptor; also called hFcγRIIb
T4 sequence (looked up): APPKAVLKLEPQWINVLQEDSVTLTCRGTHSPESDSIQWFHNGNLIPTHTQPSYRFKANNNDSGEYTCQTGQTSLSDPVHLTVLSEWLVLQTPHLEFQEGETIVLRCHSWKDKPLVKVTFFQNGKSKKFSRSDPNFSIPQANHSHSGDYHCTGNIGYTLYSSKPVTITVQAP

[8] = target: T5, recombinant human FcRn (human, UniProt P55899 24-297; P61769 21-119); assay: SPR 25C, pH 6.0, steady state; pH 6.0; first replicate
T5 construct: also called hFcRn

[9] = target: T6, human CLEC12A expressed on cells (human, UniProt Q5QGZ9 1-265); assay: flow cytometry, HL-60
T6 construct: Transduced isogenic cells or endogenous expression on AML cells; also called RMA-hCLEC12A; Ba/F3-hCLEC12A
T6 sequence: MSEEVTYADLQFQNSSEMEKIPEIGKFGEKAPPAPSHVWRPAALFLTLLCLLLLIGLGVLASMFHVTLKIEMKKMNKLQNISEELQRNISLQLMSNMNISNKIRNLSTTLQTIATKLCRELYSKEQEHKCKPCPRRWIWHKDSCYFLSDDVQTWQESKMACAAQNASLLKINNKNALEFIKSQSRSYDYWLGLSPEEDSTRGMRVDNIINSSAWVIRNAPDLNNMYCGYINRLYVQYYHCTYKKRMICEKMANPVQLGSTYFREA

Kd [1]: 703 nM and 705 nM and 745 nM and 732 nM
Kd [2]: 709 nM and 751 nM and 740 nM
Kd [3]: 839 nM
Kd [4]: 771 nM
Kd [5]: 791 nM
Kd [6]: 1 nM
koff [6]: 0.000845 s⁻¹
kon [6]: 835000 M⁻¹ s⁻¹
B1: F3'-1602 TriNKET (bispecific antibody, human IgG1, kappa)
chain: QLQLQESGPGLVKPSETLSLTCTVSGFSLTNYGLHWIRQPPGKCLEWIGVIWSGGKTDYNPSLKSRVTISKDTSKNQFSLKLSSVQAADTAVYYCAKYDYDDSLDYWGQGTLVTVSSGGGGSGGGGSGGGGSGGGGSDIQMTQSPSSLSASVGDRVTITCHASQNINFWLSWYQQKPGKAPKLLIYEASNLHTGVPSRFSGSGSGTRFTLTISSLQPEDIATYYCQQSHSYPLTFGCGTKLEIKGSDKTHTCPPCPAPELLGGPSVFLFPPKPKDTLMISRTPEVTCVVVDVSHEDPEVKFNWYVDGVEVHNAKTKPREEQYNSTYRVVSVLTVLHQDWLNGKEYKCKVSNKALPAPIEKTISKAKGQPREPRVYTLPPCRDELTKNQVSLTCLVKGFYPSDIAVEWESNGQPENNYKTTPPVLVSDGSFTLYSKLTVDKSRWQQGNVFSCSVMHEALHNHYTQKSLSLSPG
heavy: EVQLVESGGGLVKPGGSLRLSCAASGFTFSSYSMNWVRQAPGKGLEWVSSISSSSSYIYYADSVKGRFTISRDNAKNSLYLQMNSLRAEDTAVYYCARGAPIGAAAGWFDPWGQGTLVTVSSASTKGPSVFPLAPSSKSTSGGTAALGCLVKDYFPEPVTVSWNSGALTSGVHTFPAVLQSSGLYSLSSVVTVPSSSLGTQTYICNVNHKPSNTKVDKKVEPKSCDKTHTCPPCPAPELLGGPSVFLFPPKPKDTLMISRTPEVTCVVVDVSHEDPEVKFNWYVDGVEVHNAKTKPREEQYNSTYRVVSVLTVLHQDWLNGKEYKCKVSNKALPAPIEKTISKAKGQPREPQVCTLPPSRDELTENQVSLTCLVKGFYPSDIAVEWESNGQPENNYKTTPPVLDSDGSFFLYSWLTVDKSRWQQGNVFSCSVMHEALHNHYTQKSLSLSPG
light: DIQMTQSPSSVSASVGDRVTITCRASQGISSWLAWYQQKPGKAPKLLIYAASSLQSGVPSRFSGSGSGTDFTLTISSLQPEDFATYYCQQGVSFPRTFGGGTKVEIKRTVAAPSVFIFPPSDEQLKSGTASVVCLLNNFYPREAKVQWKVDNALQSGNSQESVTEQDSKDSTYSLSSTLTLSKADYEKHKVYACEVTHQGLSSPVTKSFNRGEC
notes: Trispecific F3' format: CLEC12A scFv-Fc paired with NKG2D Fab-Fc; Stressed and control samples of the stability studies are the same molecule; also called AB0237

Kd [7]: 6.1 µM
B2: AB0192 TriNKET (other)
chain: EVQLVESGGGVVQPGGSLRLSCAASGFTFNAFGMHWVRQAPGKCLEWVAFISSGSTSIYYANTVKGRFTISRDNSKNTLYLQMNSLRAEDTAVYYCARDGYPTGGAMDYWGQGTSVTVSSGGGGSGGGGSGGGGSGGGGSDIQMTQSPSSLSASVGDRVTITCKASQDIYNYLSWFQQKPGKAPKPLIYRANILVSGVPSRFSGSGSGQDYTFTISSLQPEDIATYYCLQFDAFPFTFGCGTKLEIKGSDKTHTCPPCPAPELLGGPSVFLFPPKPKDTLMISRTPEVTCVVVDVSHEDPEVKFNWYVDGVEVHNAKTKPREEQYNSTYRVVSVLTVLHQDWLNGKEYKCKVSNKALPAPIEKTISKAKGQPREPRVYTLPPCRDELTKNQVSLTCLVKGFYPSDIAVEWESNGQPENNYKTTPPVLVSDGSFTLYSKLTVDKSRWQQGNVFSCSVMHEALHNHYTQKSLSLSPG
heavy: EVQLVESGGGLVKPGGSLRLSCAASGFTFSSYSMNWVRQAPGKGLEWVSSISSSSSYIYYADSVKGRFTISRDNAKNSLYLQMNSLRAEDTAVYYCARGAPIGAAAGWFDPWGQGTLVTVSSASTKGPSVFPLAPSSKSTSGGTAALGCLVKDYFPEPVTVSWNSGALTSGVHTFPAVLQSSGLYSLSSVVTVPSSSLGTQTYICNVNHKPSNTKVDKKVEPKSCDKTHTCPPCPAPELLGGPSVFLFPPKPKDTLMISRTPEVTCVVVDVSHEDPEVKFNWYVDGVEVHNAKTKPREEQYNSTYRVVSVLTVLHQDWLNGKEYKCKVSNKALPAPIEKTISKAKGQPREPQVCTLPPSRDELTENQVSLTCLVKGFYPSDIAVEWESNGQPENNYKTTPPVLDSDGSFFLYSWLTVDKSRWQQGNVFSCSVMHEALHNHYTQKSLSLSPG
light: DIQMTQSPSSVSASVGDRVTITCRASQGISSWLAWYQQKPGKAPKLLIYAASSLQSGVPSRFSGSGSGTDFTLTISSLQPEDFATYYCQQGVSFPRTFGGGTKVEIKRTVAAPSVFIFPPSDEQLKSGTASVVCLLNNFYPREAKVQWKVDNALQSGNSQESVTEQDSKDSTYSLSSTLTLSKADYEKHKVYACEVTHQGLSSPVTKSFNRGEC
notes: the condition stands under assay; also called AB0192 Lot AB0192-005

Kd [8]: 1300 nM
fold lower EC50 than AB0010 [9]: ~2 fold
B3: F3'-1602 TriNKET (other)
chain: QLQLQESGPGLVKPSETLSLTCTVSGFSLTNYGLHWIRQPPGKCLEWIGVIWSGGKTDYNPSLKSRVTISKDTSKNQFSLKLSSVQAADTAVYYCAKYDYDDSLDYWGQGTLVTVSSGGGGSGGGGSGGGGSGGGGSDIQMTQSPSSLSASVGDRVTITCHASQNINFWLSWYQQKPGKAPKLLIYEASNLHTGVPSRFSGSGSGTRFTLTISSLQPEDIATYYCQQSHSYPLTFGCGTKLEIKGSDKTHTCPPCPAPELLGGPSVFLFPPKPKDTLMISRTPEVTCVVVDVSHEDPEVKFNWYVDGVEVHNAKTKPREEQYNSTYRVVSVLTVLHQDWLNGKEYKCKVSNKALPAPIEKTISKAKGQPREPRVYTLPPCRDELTKNQVSLTCLVKGFYPSDIAVEWESNGQPENNYKTTPPVLVSDGSFTLYSKLTVDKSRWQQGNVFSCSVMHEALHNHYTQKSLSLSPG
heavy: EVQLVESGGGLVKPGGSLRLSCAASGFTFSSYSMNWVRQAPGKGLEWVSSISSSSSYIYYADSVKGRFTISRDNAKNSLYLQMNSLRAEDTAVYYCARGAPIGAAAGWFDPWGQGTLVTVSSASTKGPSVFPLAPSSKSTSGGTAALGCLVKDYFPEPVTVSWNSGALTSGVHTFPAVLQSSGLYSLSSVVTVPSSSLGTQTYICNVNHKPSNTKVDKKVEPKSCDKTHTCPPCPAPELLGGPSVFLFPPKPKDTLMISRTPEVTCVVVDVSHEDPEVKFNWYVDGVEVHNAKTKPREEQYNSTYRVVSVLTVLHQDWLNGKEYKCKVSNKALPAPIEKTISKAKGQPREPQVCTLPPSRDELTENQVSLTCLVKGFYPSDIAVEWESNGQPENNYKTTPPVLDSDGSFFLYSWLTVDKSRWQQGNVFSCSVMHEALHNHYTQKSLSLSPG
light: DIQMTQSPSSVSASVGDRVTITCRASQGISSWLAWYQQKPGKAPKLLIYAASSLQSGVPSRFSGSGSGTDFTLTISSLQPEDFATYYCQQGVSFPRTFGGGTKVEIKRTVAAPSVFIFPPSDEQLKSGTASVVCLLNNFYPREAKVQWKVDNALQSGNSQESVTEQDSKDSTYSLSSTLTLSKADYEKHKVYACEVTHQGLSSPVTKSFNRGEC
notes: CLEC12A scFv-Fc, NKG2D A49MI Fab-Fc, human IgG1 Fc; also called AB0237
